Reference: ChEMBL document CHEMBL3860051, “Phosphorothioate analogs of P1,P3-di(nucleosid-5'-yl) triphosphates: Synthesis, assignment of the absolute configuration at P-atoms and P-stereodependent recognition by Fhit hydrolase” (Bioorg Med Chem, 2016)

What was measured:
[1] = molecular target: Bis(5'-adenosyl)-triphosphatase (Homo sapiens) (UniProt P49789); assay: Activity at human Fhit expressed in Escherichia coli BL 21 assessed as enzyme Km by Michaelis-Menten equation relative to control
[2] = test system: Nc1ncnc2c1ncn2[C@@H]1O[C@H](CO[P@@](=O)(S)OP(=O)(O)O[P@](=O)(S)OC[C@H]2O[C@@H](n3cnc4c(N)ncnc43)[C@H](O)[C@@H]2O)[C@@H](O)[C@H]1O; assay: (§1) Activity at human Fhit expressed in Escherichia coli BL21 assessed as enzyme Km by Michaelis-Menten equation
[3] = test system: Nc1ncnc2c1ncn2[C@@H]1O[C@H](CO[P@](=O)(S)OP(=O)(O)O[P@@](=O)(S)OC[C@H]2O[C@@H](n3cnc4c(N)ncnc43)[C@H](O)[C@@H]2O)[C@@H](O)[C@H]1O; assay: as §1
[4] = test system: Nc1ncnc2c1ncn2[C@@H]1O[C@H](CO[P@](=O)(S)OP(=O)(O)O[P@](=O)(S)OC[C@H]2O[C@@H](n3cnc4c(N)ncnc43)[C@H](O)[C@@H]2O)[C@@H](O)[C@H]1O; assay: as §1
[5] = test system: Nc1ncnc2c1ncn2[C@@H]1O[C@H](CO[P@@](=O)(S)OP(=O)(O)O[P@](=O)(S)OC[C@H]2O[C@@H](n3cnc4c(N)ncnc43)[C@H](O)[C@@H]2O)[C@@H](O)[C@H]1O; assay: (§2) Activity at human Fhit expressed in Escherichia coli BL21 assessed as enzyme Kcat by Michaelis-Menten equation
[6] = test system: Nc1ncnc2c1ncn2[C@@H]1O[C@H](CO[P@](=O)(S)OP(=O)(O)O[P@@](=O)(S)OC[C@H]2O[C@@H](n3cnc4c(N)ncnc43)[C@H](O)[C@@H]2O)[C@@H](O)[C@H]1O; assay: as §2
[7] = test system: Nc1ncnc2c1ncn2[C@@H]1O[C@H](CO[P@](=O)(S)OP(=O)(O)O[P@](=O)(S)OC[C@H]2O[C@@H](n3cnc4c(N)ncnc43)[C@H](O)[C@@H]2O)[C@@H](O)[C@H]1O; assay: as §2
[8] = test system: Nc1ncnc2c1ncn2[C@@H]1O[C@H](CO[P@@](=O)(S)OP(=O)(O)O[P@](=O)(S)OC[C@H]2O[C@@H](n3cnc4c(N)ncnc43)[C@H](O)[C@@H]2O)[C@@H](O)[C@H]1O; assay: (§3) Activity at human Fhit expressed in Escherichia coli BL21 assessed as ratio of enzyme Kcat to Km by Michaelis-Menten equation
[9] = test system: Nc1ncnc2c1ncn2[C@@H]1O[C@H](CO[P@](=O)(S)OP(=O)(O)O[P@@](=O)(S)OC[C@H]2O[C@@H](n3cnc4c(N)ncnc43)[C@H](O)[C@@H]2O)[C@@H](O)[C@H]1O; assay: as §3
[10] = test system: Nc1ncnc2c1ncn2[C@@H]1O[C@H](CO[P@](=O)(S)OP(=O)(O)O[P@](=O)(S)OC[C@H]2O[C@@H](n3cnc4c(N)ncnc43)[C@H](O)[C@@H]2O)[C@@H](O)[C@H]1O; assay: as §3
[11] = test system: Nc1ncnc2c1ncn2[C@@H]1O[C@H](COP(=O)(O)OP(=O)(O)OP(=O)(O)OC[C@H]2O[C@@H](n3cnc4c(N)ncnc43)[C@H](O)[C@@H]2O)[C@@H](O)[C@H]1O; assay: Activity at human Fhit expressed in Escherichia coli SG100 assessed as enzyme Kcat by Michaelis-Menten equation
[12] = test system: Nc1ncnc2c1ncn2[C@@H]1O[C@H](COP(=O)(O)OP(=O)(O)OP(=O)(O)OC[C@H]2O[C@@H](n3cnc4c(N)ncnc43)[C@H](O)[C@@H]2O)[C@@H](O)[C@H]1O; assay: (§4) Activity at human Fhit expressed in Escherichia coli SG100 assessed as ratio of enzyme Kcat to Km by Michaelis-Menten equation
[13] = test system: Nc1ncnc2c1ncn2[C@@H]1O[C@H](CO[P@](=O)(S)OP(=O)(O)OP(=O)(O)OCc2cccc([N+](=O)[O-])c2)[C@@H](O)[C@H]1O; assay: as §4
[14] = test system: Nc1ncnc2c1ncn2[C@@H]1O[C@H](COP(=O)(O)OP(=O)(O)OP(=O)(O)OC[C@H]2O[C@@H](n3cnc4c(N)ncnc43)[C@H](O)[C@@H]2O)[C@@H](O)[C@H]1O; assay: (§5) Activity at human Fhit expressed in Escherichia coli SG100 assessed as enzyme Km by Michaelis-Menten equation
[15] = test system: Nc1ncnc2c1ncn2[C@@H]1O[C@H](CO[P@](=O)(S)OP(=O)(O)OP(=O)(O)OCc2cccc([N+](=O)[O-])c2)[C@@H](O)[C@H]1O; assay: as §5
[16] = test system: Nc1ncnc2c1ncn2[C@@H]1O[C@H](CO[P@](=O)(S)OP(=O)(O)OP(=O)(O)OCc2cccc([N+](=O)[O-])c2)[C@@H](O)[C@H]1O; assay: Activity at human Fhit expressed in Escherichia coli SG100 assessed as enzyme Vmax by Michaelis-Menten equation

Sequence of Bis(5'-adenosyl)-triphosphatase (Homo sapiens) (P49789 whole entry, looked up): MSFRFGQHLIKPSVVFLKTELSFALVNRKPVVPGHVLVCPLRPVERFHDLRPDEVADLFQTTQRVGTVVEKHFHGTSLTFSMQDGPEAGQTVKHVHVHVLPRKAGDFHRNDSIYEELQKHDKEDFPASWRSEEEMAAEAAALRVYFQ
Sequence of Bis(5'-adenosyl)-triphosphatase (Homo sapiens), P49789 (P49789 whole entry): as the sequence (P49789 whole entry, looked up) above

Work on `Nc1ncnc2c1ncn2[C@@H]1O[C@H](CO[P@@](=O)(S)OP(=O)(O)O[P@](=O)(S)OC[C@H]2O[C@@H](n3cnc4c(N)ncnc43)[C@H](O)[C@@H]2O)[C@@H](O)[C@H]1O` yielded a fold change (FC) [1] of 2.8.

`Nc1ncnc2c1ncn2[C@@H]1O[C@H](CO[P@](=O)(S)OP(=O)(O)O[P@@](=O)(S)OC[C@H]2O[C@@H](n3cnc4c(N)ncnc43)[C@H](O)[C@@H]2O)[C@@H](O)[C@H]1O` was tested, and the fold change (FC) [1] was 2.8.

In the case of `Nc1ncnc2c1ncn2[C@@H]1O[C@H](CO[P@](=O)(S)OP(=O)(O)O[P@](=O)(S)OC[C@H]2O[C@@H](n3cnc4c(N)ncnc43)[C@H](O)[C@@H]2O)[C@@H](O)[C@H]1O`, the fold change (FC) [1] is reported as 2.8.

“Bis(5'-adenosyl)-triphosphatase (Homo sapiens), P49789” was tested, and the Km [2] was 5.32 µM, the Km [3] was 3.54 µM and the Km [4] was 1.25 µM. For the same molecule, the kcat [5] was 8.4 ×10⁻⁴ /s, the kcat [6] was 4.8 ×10⁻⁴ /s and the kcat [7] was 29.9 ×10⁻⁴ /s. It also gave a kcat/Km [8] of 1.7 ×10² /M/s, a kcat/Km [9] of 1.4 ×10² /M/s and a kcat/Km [10] of 24 ×10² /M/s. The kcat [11] was 73 s⁻¹, the kcat/Km [12] was 3.8 ×10⁷ /M/s and the kcat/Km [13] was 0.125 ×10⁶ /s/M. It also gave a Km [14] of 1.9 µM, a Km [15] of 2.8 µM and a Vmax (10'-6mol/min/ug) [16] of 0.35.
